Target: prototype SARS-CoV-2 tandem RBD homotrimer (PPP) (SARS-CoV-2, UniProt P0DTC2)
Assay: cryo-EM structure
Settings: both partners purified

B1: fragment antigen binding (Fab) of mAb CB6 (Fab, V domains shown)
VH: EVQLVESGGGLVQPGGSLRLSCAASGFTVSSNYMSWVRQAPGKGLEWVSVIYSGGSTFYADSVKGRFTISRDNSMNTLFLQMNSLRAEDTAVYYCARVLPMYGDYLDYWGQGTLVTVSS
VL: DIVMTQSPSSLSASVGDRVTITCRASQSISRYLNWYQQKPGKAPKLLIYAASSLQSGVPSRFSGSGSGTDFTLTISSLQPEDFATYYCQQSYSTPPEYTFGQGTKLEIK
stoichiometry N: 3

From publication PMC10538664 (PLOS Pathogens, 2023)
